Here are results for one molecule from patent US20250312473A1, “B7H3 ANTIBODY DRUG CONJUGATES” (BEONE MEDICINES I GMBH, priority 2022, published 2025).

For the assay, the target named is T1, ECD of human 4Ig-B7H3 (Homo sapiens, UniProt Q5ZPR3).
T1 construct: ECD of human 4Ig-B7H3 (Sinobiological, Cat: 11188-H08H); purchased Sinobiological 11188-H08H
T1 sequence (Q5ZPR3 29-466 limits assumed): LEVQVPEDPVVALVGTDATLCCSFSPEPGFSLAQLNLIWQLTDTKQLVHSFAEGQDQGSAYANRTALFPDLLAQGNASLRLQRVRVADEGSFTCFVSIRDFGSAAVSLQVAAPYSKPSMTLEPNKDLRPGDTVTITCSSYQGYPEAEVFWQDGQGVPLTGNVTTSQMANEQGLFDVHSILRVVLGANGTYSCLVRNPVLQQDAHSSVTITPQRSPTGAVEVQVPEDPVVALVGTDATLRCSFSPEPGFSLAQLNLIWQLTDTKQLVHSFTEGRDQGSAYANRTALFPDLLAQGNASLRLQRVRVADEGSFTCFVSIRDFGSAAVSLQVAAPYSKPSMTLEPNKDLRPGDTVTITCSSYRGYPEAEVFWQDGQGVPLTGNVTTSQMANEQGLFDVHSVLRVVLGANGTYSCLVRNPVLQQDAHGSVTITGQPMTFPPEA
Description: SPR affinity determination. In kind it is binding. The text has this:
For affinity determination, antibodies were captured by anti-human Fc surface, and used in an affinity assay based on surface plasmon resonance (SPR) technology. The results of SPR-determined binding profiles of humanized antibodies to ECD of human 4Ig-B7H3 (Sinobiological, Cat: 11188-H08H) were summarized in Table 20.

B1: BGA-4348: "1^st version of humanized antibody BGA-4348", CDR-grafted from BGA-3295, human IgG1 variant format (antibody)
heavy: QIQLVQSGAEVKKPGSSVKVSCKASGYTFTNYDINWVRQAPGQGLEWMGWIYPGDGSAYYNEKFKGRATITADKSTSTAYMELSSLRSEDTAVYYCARWGYGGVPFAYWGQGTLVTVSSASTKGPSVFPLAPSSKSTSGGTAALGCLVKDYFPEPVTVSWNSGALTSGVHTFPAVLQSSGLYSLSSVVTVPSSSLGTQTYICNVNHKPSNTKVDKKVEPKSCDKTHTCPPCPAPPAAGPSVFLFPPKPKDTLMISRTPEVTCVVVDVSHEDPEVKFNWYVDGVEVHNAKTKPREEQYNSTYRVVSVLTVLHQDWLNGKEYKCKVSNKALAAPIEKTISKAKGQPREPQVYTLPPSRDELTKNQVSLTCLVKGFYPSDIAVEWESNGQPENNYKTTPPVLDSDGSFFLYSKLTVDKSRWQQGNVFSCSVMHEALHNHYTQKSLSLSPGK
light: DIVMTQSPDSLAVSLGERATINCKSSQSLLNDINQKNYLAWYQQKPGQSPKLLVYFASTGVSGVPDRFSGSGSGTDFTLTISSLQAEDVAVYYCQQYYSFPWTFGGGTKVEIK
modifications: left off: a dimerising Fc or GST
notes: "1st version of humanized antibody BGA-4348", CDR-grafted from BGA-3295, human IgG1 variant format
With B1, for the setting “Test 1”, the dissociation rate constant (koff) is 1.04e-05 s⁻¹ and the “kon” value turned out to be 31500 M⁻¹ s⁻¹. Moreover, under “Test 2”, the “koff” value amounted to 0.000227 s⁻¹ and the on-rate (kon) came to 369000 M⁻¹ s⁻¹. Besides, the Kd (read-out: dissociation constants) is 0.6 nM.
